Here are results for one substance from PMC3402150, “An endogenous factor enhances ferulic acid decarboxylation catalyzed by phenolic acid decarboxylase from Candida guilliermondii” (AMB Express, 2012).

By Km is commonly meant the concentration of substrate that gives half-maximal velocity. The kcat is the number of substrate molecules converted per active site and unit of time at saturation.

The data set deals with COc1cc(/C=C/C(=O)O)ccc1O. As to the kind of experiment: purified protein. The following applies: control without ultrafiltrate activator, general assay 0.1 M sodium phosphate pH 6.0, 25°C.

“CgPAD (phenolic acid decarboxylase) (Meyerozyma guilliermondii)”: the Michaelis-Menten constant (Km) is given as 5.31 mM and the turnover number (kcat) stood at 89.7 s⁻¹.
